What all share (assay): SPR (Biacore T200), albumin amine-coupled to CM5, Affimer analyte, pH 7.4
A general note: In SPR one partner is held on a chip, and binding of the other changes the refractive index at the surface.

In one experiment the target is T1, cynomolgus serum albumin (cynomolgus).
T1 construct: also called CSA; cyno serum albumin
Here is the method:
(§1) Affinities for mouse, human, and cynomolgus serum were also measured at pH 7.4 for four (4) AFFIMER® binders using surface plasmon resonance (SPR) (FIG. 5, Table 5). […] A concentration titration of AFFIMER® monomers was run as analyte at a flow rate of 30 μl/min or 60 μl/min. Fc2-1, Fc3-1 and Fc4-1 kinetic data was blank subtracted and fit to a 1:1 Langmuir binding model (BIAcore Evalution software; GE) to calculate KD values.

The target of the next experiment is T2, human serum albumin (human, UniProt P02768 25-609).
T2 construct: mature; Bought protein; biotinylated in the Octet and HTRF assays; also called HSA; HuSA
How it is done: as §1

For the next experiment, the target named is T3, mouse serum albumin (mouse, UniProt P07724 25-608).
T3 construct: also called MSA
How it is done: as §1

By Kd is commonly meant the equilibrium constant for the complex coming apart. Read a low Kd as higher affinity. A word on the koff: it is the first-order rate constant of dissociation. One may read the kon as the second-order rate constant of association.

T1 sequence (A2V9Z4 25-608): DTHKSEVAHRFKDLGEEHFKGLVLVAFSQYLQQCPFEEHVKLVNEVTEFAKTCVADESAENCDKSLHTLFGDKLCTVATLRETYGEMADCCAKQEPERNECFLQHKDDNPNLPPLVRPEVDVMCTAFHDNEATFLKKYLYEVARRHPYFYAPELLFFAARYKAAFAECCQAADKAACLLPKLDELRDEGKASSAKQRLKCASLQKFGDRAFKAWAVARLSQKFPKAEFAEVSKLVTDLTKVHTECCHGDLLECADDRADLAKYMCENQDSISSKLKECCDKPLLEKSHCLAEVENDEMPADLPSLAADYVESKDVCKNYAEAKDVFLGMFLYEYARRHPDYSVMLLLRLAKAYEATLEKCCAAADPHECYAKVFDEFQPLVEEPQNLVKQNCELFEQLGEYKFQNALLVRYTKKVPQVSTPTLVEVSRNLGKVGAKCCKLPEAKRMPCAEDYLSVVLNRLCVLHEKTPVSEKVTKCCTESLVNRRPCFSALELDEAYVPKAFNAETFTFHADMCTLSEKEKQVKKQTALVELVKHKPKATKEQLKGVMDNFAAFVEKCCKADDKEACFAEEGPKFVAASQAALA
T3 sequence (P07724 25-608 limits assumed): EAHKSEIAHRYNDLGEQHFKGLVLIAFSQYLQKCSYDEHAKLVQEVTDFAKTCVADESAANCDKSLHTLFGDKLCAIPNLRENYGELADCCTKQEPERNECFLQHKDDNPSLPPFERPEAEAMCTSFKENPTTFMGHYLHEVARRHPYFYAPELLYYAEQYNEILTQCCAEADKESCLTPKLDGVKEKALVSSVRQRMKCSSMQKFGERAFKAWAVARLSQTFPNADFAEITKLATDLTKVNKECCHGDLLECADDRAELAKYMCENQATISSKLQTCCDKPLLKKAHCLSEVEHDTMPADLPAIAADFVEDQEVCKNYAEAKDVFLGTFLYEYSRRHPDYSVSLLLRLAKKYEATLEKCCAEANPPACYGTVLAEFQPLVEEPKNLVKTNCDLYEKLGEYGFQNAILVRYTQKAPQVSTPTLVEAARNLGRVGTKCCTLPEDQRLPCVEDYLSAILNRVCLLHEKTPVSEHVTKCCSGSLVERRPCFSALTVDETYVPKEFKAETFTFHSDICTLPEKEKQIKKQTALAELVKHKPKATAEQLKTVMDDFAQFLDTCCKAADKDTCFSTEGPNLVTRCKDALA

B1: HSA-41 (designed binder)
chain: MIPRGLSEAKPATPEIQEIVDKVKPQLEEKTNETYGKLEAVQYKTQVLANFFQRRWPGSTNYYIKVRAGDNKYMHLKVFNGPWKFRNTDRGADRVLTGYQVDKNKDDELTGFHHHHHH
notes: also called HSA-41 parent; HSA-41 AH parent
In the experiment with cynomolgus serum albumin, B1 yielded a Kd of 112 nM, a koff of 0.0546 s⁻¹ and a kon of 488000 M⁻¹ s⁻¹. In the experiment with human serum albumin, this molecule displayed a Kd of 2.59 nM, a koff of 0.0037 s⁻¹ and a kon of 1.43e+06 M⁻¹ s⁻¹. In the experiment with mouse serum albumin, this molecule showed an equilibrium dissociation constant (Kd) of 67.8 nM, a koff of 0.139 s⁻¹ and a kon of 2.04e+06 M⁻¹ s⁻¹.

Values taken from patent publication US20230272011A1 (AVACTA LIFE SCIENCES, published 2023).
